Experimental data taken from the supplement of paper PMC9732359.
± gives the uncertainty stated by the source.

Test: protein stability index of a GFP-peptide fusion (yeast GPS) (PSI 1-4); higher = more stable; sorted into four equal gates, so the index is relative within each strain
Settings: pdr5∆
Method in brief: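 Mid-log yeast cultures in leucine-free medium, carrying a pooled plasmid library, were sorted into four equal gates by their GFP/Cherry fluorescence ratio. Each plasmid expressed Cherry along with GFP fused upstream of a tiled 17-residue yeast protein peptide. Plasmids recovered from each gate were PCR-amplified and Illumina-sequenced, with reads assigned to strains by barcodes. The protein stability index was obtained by summing each gate's read frequency weighted by its gate number.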

Sequence | protein stability index
CFVLGIASMSTVRASSL [SMC2] | 1.86 ± 0.055

Same assay, conditions: san1∆

Sequence | protein stability index
AGVLNGTLEYGTCFGGS [RET1] | 2.99 ± 0.051
AGVQGSKVSKQQAKGAF [RPL24B] | 3.19 ± 0.055
AHCILGIGGDHAKFSPV [RPC40] | 2.41 ± 0.12
AHKLKKSLDSIPMSKTI [FAS2] | 3.01 ± 0.058
AHRGIRHFWGLRVRGQH [RPS18A] | 2.44 ± 0.081
AHRNGIKKPKTYKYPSL [RPL29] | 3.19 ± 0.28
AHTPMLQMYSKIRRHPN [FAS1] | 2.96 ± 0.06
AIGCIERSDLLPYLSDT [YJR042W/NUP85] | 2.8 ± 0.075
AIKKKEKLLRHVDSLIE [SRB7] | 3.2 ± 0.094
AIVVGWRAIIKAIFPNT [FAS1] | 2.41 ± 0.086
AKICALLFFNFSHSLTT [NUT1] | 1.4 ± 0.051
AKKLIQSLPPTLKVNRL [RPL38] | 2.02 ± 0.048
AKKSTTISKESTPDQRK [ESC2] | 2.94 ± 0.13
AKLSERSNGSVASLSKR [YJL039C/NUP192] | 1.81 ± 0.054
AKNKSTRINGLNSNNSI [REC8] | 3.25 ± 0.061
AKPDEKKNDEVSKPAFS [YJL041W/NSP1] | 2.94 ± 0.29
AKPFQVTKEYFQDVYDL [FAS1] | 2.4 ± 0.088
ALAEGHGDAAVLLVEKY [NAS6] | 3.04 ± 0.09
ALAQQKLLTPQDMEAAK [GAL11] | 3.4 ± 0.1
ALERNWPIVNSKVYFNN [RPN12] | 1.38 ± 0.12
ALFVFYSPNTLGHPDNY [COB] | 2.06 ± 0.11
ALGEFADWDPESMAYTA [YML031W/NDC1] | 3.36 ± 0.083
ALNDVYLDADVAKLANW [YML031W/NDC1] | 3.67 ± 0.22
ALNNAIPGGPKFEPLYP [PRP8] | 2.95 ± 0.09
ALNSMCASIPIAIIKDT [RRP46] | 1.8 ± 0.097

Sequence | protein stability index
ALRALARSGLRIGRIED [RPS14A] | 2.33 ± 0.1
ALRDVKNNNNANNNGSN [GAL11] | 3.13 ± 0.12
ALSGLYYKNFHNSVKRY [SNM1] | 1.17 ± 0.17
ALTQMDQDKVNFASGDN [RPB3] | 3.08 ± 0.15
ALYVLRERIRKGLQIYQ [PRP8] | 2.26 ± 0.13
AMSTVTLGVVGKSEKLS [SKI6] | 2.75 ± 0.099
AMTIYWDDHTKKPLSMA [CDC53] | 2.69 ± 0.048
ANDEEAYIKLLDQTKDT [SNF2] | 3.4 ± 0.069
ANDFQLTIVTCKQFPKL [SRB8] | 1.82 ± 0.073
ANFGEILEDFRVIKDFK [YMR153W/NUP53] | 3.37 ± 0.068
ANGTVVSFIKNGEEIVG [MTR3] | 1.45 ± 0.21
ANICLTFLESINGINWR [SIN4] | 2.46 ± 0.058
ANKEKRAIILERNAAYQ [RPL7A] | 1.14 ± 0.11
ANPAGASQPEPTTNEPA [YJL041W/NSP1] | 2.92 ± 0.1
ANRVTDKLTRVHDKIWC [PRE3] | 2.38 ± 0.063
ANSSTIRVTNSFALPFE [RPN8] | 2.73 ± 0.063
ANTGGGLFGANSNSNSG [YGL172W/NUP49] | 1.76 ± 0.17
APIGKHYVVLDTNVVLQ [DIS3] | 2.04 ± 0.16
APLFKKNSSRPMPPIRG [SMD3] | 2.39 ± 0.062
APLKHGVGILYKGMASN [BRR2] | 1.38 ± 0.13
APLVLLSALDHYERTQT [RPN8] | 2.39 ± 0.057
APNTLTNILISPLNTTT [YML103C/NUP188] | 2.03 ± 0.086
APRQEISEEETTVKPLF [YAR002W/NUP60] | 3.23 ± 0.067
APTPAAPGASVPATAAP [SWI1] | 3.11 ± 0.042
AQFYLGKRIAYVYRASK [RPL33A] | 1.36 ± 0.096

Sequence | protein stability index
AQHESFLRQKICLMTLI [RPN9] | 1.15 ± 0.11
AQKCGWTIPHKKWNDLK [SIR2] | 3.26 ± 0.058
AQLTLKRCKHFELGGEK [RPL42A] | 2.89 ± 0.069
AQYFYSGAYSYPDFRHY [DIS3] | 1.87 ± 0.16
ARDEILPLRLQFNEFIQ [PGD1] | 2.74 ± 0.078
ARGLTATGKKSRGINKG [RPL15A] | 3.3 ± 0.071
ARGMTSKPAGFMKKLRA [RPS15] | 2.64 ± 0.26
ARIIRSELLARDIFQED [RGR1] | 2.14 ± 0.12
ARLAILKERAKNISSQL [YGR119C/NUP57] | 2.51 ± 0.072
ARQFGYVILTTSAGIMD [RPS22A] | 1.17 ± 0.094
ARVKAFDRHCNMVLENV [SMD2] | 1.39 ± 0.21
ARVLFDDMVEYEDGTPA [CYT1] | 3.24 ± 0.085
ASFGKNLQIRQLFNWCL [DSN1] | 1.29 ± 0.15
ASFNDTFVHVTDLSGKE [RPS14A] | 1.76 ± 0.22
ASILLALTQMDQDKVNF [RPB3] | 3.24 ± 0.073
ASISLPNHIPSVNPSNK [SWP82] | 3.01 ± 0.075
ASKGIDRLSLQDRQQLL [ECM29] | 3.19 ± 0.085
ASKKSGGDVVKFQKLLQ [SMC4] | 3.19 ± 0.13
ASKTNLRLTDVTNSLSN [GAL11] | 2.96 ± 0.051
ASLDGTIRLWECGTGTT [RPN14] | 3.19 ± 0.069
ASLGIGLAAMGSANIEV [RPN2] | 1.74 ± 0.091
ASSAAAGAAGAAAGGDA [RPP2B] | 3.21 ± 0.071
ASTPSIRPDGRLPHQFR [RRP42] | 2.81 ± 0.19
ASTVAKTAPIQESFVPN [YOR098C/NUP1] | 2.94 ± 0.3
ASVTKEILGTAQSVGCR [RPL12A] | 1.35 ± 0.082

Sequence | protein stability index
ATADTTHLHEALDIVCS [NUT1] | 2.48 ± 0.12
ATNANATTDQEGDIHLE [PRE10] | 3.33 ± 0.036
ATNRVDVLDPALLRSGR [RPT5] | 3.04 ± 0.085
ATPFRQWFEAHYGQTLG [RPS8A] | 2.7 ± 0.021
ATPSAKEASQEDDNNNV [YLR335W/NUP2] | 2.76 ± 0.051
ATQKESLEMVPKDTSAA [RGR1] | 3.09 ± 0.055
ATRTLVASIQNDPSAEV [YCG1] | 2.79 ± 0.27
ATTGGLFGSKPQGSTTN [YGR119C/NUP57] | 3.39 ± 0.12
ATVDEFPLCVHLVSNEL [RPL10] | 3.05 ± 0.069
ATYMDNDIAGQPQALQK [RPO21] | 2.5 ± 0.073
AVEQLAGCKIDNVDDIG [YDL088C/ASM4] | 2.56 ± 0.08
AVGNLGNAVTVTEDGTV [RPL22A] | 2.22 ± 0.095
AVKKLYAIIINYTKDNE [YCS4] | 1.93 ± 0.1
AVSKDPLLTKRKDLRDK [DIS3] | 2.78 ± 0.22
AVSRSMTDIWNTLIPES [ECM29] | 2.84 ± 0.054
AVVFKPFKGEVVDGTVV [RPB7] | 2.79 ± 0.062
AVVGNNMLLDPAANESE [RRP42] | 2.48 ± 0.093
AYEEEEENEDNDGNNRT [NUT1] | 3.47 ± 0.15
AYLLLVQGGNAAPSAAD [RPP2B] | 1.96 ± 0.062
CDGDTVWDKFAVNLLNC [SSN2] | 3.14 ± 0.07
CDKSVCRKCYARLPPRA [RPL40A] | 2.56 ± 0.07
CDLSSKFNKSKAKFTSL [YCS4] | 2.98 ± 0.05
CFSQENIEEMARVILYL [SIN4] | 2.79 ± 0.095
CFVLGIASMSTVRASSL [SMC2] | 1.83 ± 0.072

Same assay, conditions: ubr1∆

Sequence | protein stability index
AGVLNGTLEYGTCFGGS [RET1] | 3.08 ± 0.043
